From the supplement of paper PMC9732359
± gives the uncertainty stated by the source.

Assay: protein stability index of a GFP-peptide fusion (yeast GPS) (PSI 1-4); higher = more stable; sorted into four equal gates, so the index is relative within each strain
How it was run: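 Tiled yeast protein peptides of 17 residues were each joined downstream of GFP, on plasmids that also express Cherry. The pooled library was maintained in yeast, and mid-log cultures in leucine-free medium were sorted into four equal gates on the GFP/Cherry ratio. Plasmids from every gate were amplified by PCR and sequenced on Illumina, with barcodes linking reads to strains. The protein stability index of a peptide is its gate-number-weighted read frequency summed over the gates.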

| Sequence | protein stability index (doa10∆) | protein stability index (pdr5∆) | protein stability index (san1∆) | protein stability index (ubr1∆) |
| --- | --- | --- | --- | --- |
| IRPLSKPMTAYARADTH [RRP6] | 2.74 ± 0.08 | 2.9 ± 0.083 | 2.8 ± 0.065 | 2.89 ± 0.14 |
| FDQAGKKVSRRNARAAR [RPL13B] | 3.08 ± 0.091 | 3.01 ± 0.14 | 2.67 ± 0.28 | 3.29 ± 0.094 |
| AFKHKRALVEHIIQAKA [RPL19A] | 3.11 ± 0.13 | 3.37 ± 0.1 | 3.19 ± 0.12 | 3.19 ± 0.072 |
| MHRPVHFLQFSELAGDE [PRP8] | 3.23 ± 0.081 | 3.15 ± 0.084 | 2.88 ± 0.059 | 3.05 ± 0.06 |
| SSNIAGTNPLSSDGAYT [SSN2] | 3.04 ± 0.13 | 2.73 ± 0.17 | 3.03 ± 0.062 | 3.33 ± 0.12 |
| ELADLPKLKRIGLVKCT [GRR1] | 2.82 ± 0.085 | 2.71 ± 0.051 | 2.28 ± 0.088 | 2.88 ± 0.087 |
| TYVITKNGKIYLKHNSI [RET1] | 2.72 ± 0.053 | 2.54 ± 0.046 | 2.45 ± 0.067 | 2.64 ± 0.028 |
| SNLEKLLFINSSKLVDV [YML103C/NUP188] | 2.48 ± 0.094 | 2.07 ± 0.066 | 1.83 ± 0.12 | 2.62 ± 0.082 |
| FDDRGDVKVIMATNKIE [RPT2] | 3.12 ± 0.12 | 3.18 ± 0.15 | 3.11 ± 0.083 | 3.27 ± 0.12 |
| QINIMPSLKAHFTEIKL [SIR3] | 2.18 ± 0.056 | 2.1 ± 0.054 | 2.29 ± 0.057 | 2.4 ± 0.045 |
| ILDSLPSVIHSSVEMLL [YDL116W/NUP84] | 1.97 ± 0.055 | 1.44 ± 0.056 | 1.39 ± 0.084 | 1.44 ± 0.041 |
| LSEWEEYLKGSESQLNS [YCS4] | 3.44 ± 0.13 | 3.65 ± 0.13 | 3.46 ± 0.12 | 3.49 ± 0.1 |
| KVPDISSDGQLKKFRES [BRR2] | 3.36 ± 0.13 | 3.49 ± 0.14 | 3.39 ± 0.07 | 3.54 ± 0.065 |
| LVHDVVYDFYGRHVATC [YGL100W/SEH1] | 1.46 ± 0.074 | 1.69 ± 0.06 | 1.41 ± 0.12 | 1.38 ± 0.057 |
| NNIRQAICRYANVIKAL [RRP4] | 1.41 ± 0.11 | 1.36 ± 0.07 | 1.17 ± 0.14 | 1.43 ± 0.14 |
| NEAALVVNITHHELVPK [RPB5] | 2.93 ± 0.09 | 2.71 ± 0.06 | 3.14 ± 0.062 | 2.88 ± 0.081 |
| DNDIMNLGSRTKNNTQA [SSN3] | 2.91 ± 0.038 | 2.92 ± 0.038 | 2.76 ± 0.028 | 2.977 ± 0.029 |
| LNVAEIITSGRDTREVL [ARP9] | 3.35 ± 0.14 | 3.25 ± 0.089 | 3.44 ± 0.051 | 3.43 ± 0.081 |
| KKKRKKKNKSAIDGIFG [RMP1] | 2.47 ± 0.045 | 2.83 ± 0.045 | 2.81 ± 0.042 | 3.03 ± 0.038 |
| SGEDAEEELWNSPSKGN [YIL149C/MLP2] | 3.15 ± 0.13 | 3.25 ± 0.084 | 3.28 ± 0.058 | 3.21 ± 0.065 |
| RRMGILKKILDQCKKQR [RPO31] | 1.63 ± 0.16 | 1.7 ± 0.29 | 1.61 ± 0.23 | 1.9 ± 0.098 |
| GKHSQEQNSSSAKPSQI [SIR4] | 2.97 ± 0.067 | 3.24 ± 0.072 | 3.02 ± 0.06 | 3.24 ± 0.052 |
| GAHGYSGFYTFSLLDHH [PRE1] | 2.94 ± 0.19 | 2.44 ± 0.16 | 2.92 ± 0.098 | 2.76 ± 0.12 |
| QGPVKNTQLHGPSATDP [RGR1] | 2.93 ± 0.062 | 3.06 ± 0.047 | 2.97 ± 0.053 | 3.02 ± 0.035 |
| ELLDQVTLGREGQIIQR [CDC53] | 3.07 ± 0.14 | 3.73 ± 0.18 |  | 3.21 ± 0.19 |
| VTRGISVLKDSDDKTRQ [PRE1] | 3.16 ± 0.078 | 3.28 ± 0.066 | 3.18 ± 0.056 | 3.17 ± 0.059 |
